Test results taken from US20210284747A1 (CAPELLA BIOSCIENCE, published 2021).
Residue numbers refer to the chain shown, from its start. Like-named read-outs stand apart in the source and are kept apart here. Each block holds one binder with its values, some of them ahead of it.

Tests used:
[1] = target: T1, LIGHT without residues 81-84, stably expressed on EL4 cells (EL4-NC-LIGHT); assay: cell-based or functional assay
[2] = target: T1, LIGHT without residues 81-84, stably …; assay: cell-based or functional assay; remark: listed apart in the source
[3] = target: Full length LIGHT G188A on HEK293FF cells (Homo sapiens (Human), UniProt O43557 1-240); assay: flow cytometry, HEK293FF, mAb at EC50
Chain of Full length LIGHT G188A on HEK293FF cells (O43557 whole entry G188A): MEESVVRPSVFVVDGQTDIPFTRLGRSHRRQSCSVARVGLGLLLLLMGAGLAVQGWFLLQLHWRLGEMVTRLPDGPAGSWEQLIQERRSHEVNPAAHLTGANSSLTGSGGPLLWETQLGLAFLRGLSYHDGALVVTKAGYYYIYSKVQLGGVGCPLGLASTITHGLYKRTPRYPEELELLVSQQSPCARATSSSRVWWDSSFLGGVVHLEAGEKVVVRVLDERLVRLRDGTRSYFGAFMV
Description: (§1) The day of transfection the cells were seeded in a 24-well plate at 0.6×10⁶ cells/well. Lipofectamine 2000 (ThermoFisher scientific), 3 ul, was mixed with 50 μl OptiMEM medium (GIBCO) and then added to 50 μl Opti-MEM medium containing 3 ug plasmid DNA and incubated for 20 min at RT to form DNA-Lipofectamine 2000 complexes which were then added to the HEK293FF cells and incubated at 37° C., 5% CO₂ for 24 hours. For each construct, in duplicate, 0.60×10⁶ cells/well were used in a 96 well round bottom plate. Cells were centrifuged for 3 minutes at 300×g at 4° C., the supernatant discarded and the cells washed with 150 μl FACS buffer (0.5% FBS in phosphate buffered saline). This process was repeated 3 times. […] The wells were washed 3 times as above and 50 μl/well of goat anti-human IgG FITC (1:1500 dilution in FACS buffer, SIGMA F9512-2ML) or goat anti-mouse APC (1/500 dilution in FACS buffer, BDBioscience 550826), as appropriate, was added to the wells and incubated for 30 min at 4° C. protected from the light, with shaking. The cells were then washed as above, resuspended in 100 μl of FACS buffer and binding of the antibodies to the constructs was measured using flow cytometry and a total of 10,000 cells were acquired for each sample. Controls of buffer and secondary antibody only as well as HEK293FF non transfected cells were also used.

[4] = target: Full length LIGHT R189A on HEK293FF cells (Homo sapiens (Human), UniProt O43557 1-240); assay: flow cytometry, HEK293FF, mAb at EC50
Chain of Full length LIGHT R189A on HEK293FF cells (O43557 whole entry R189A): as the sequence (O43557 whole entry G188A) above, with A188G, R189A counted along it
Description: as §1

[5] = target: Full length LIGHT A190S on HEK293FF cells (Homo sapiens (Human), UniProt O43557 1-240); assay: flow cytometry, HEK293FF, mAb at EC50
Chain of Full length LIGHT A190S on HEK293FF cells (O43557 whole entry A190S): as the sequence (O43557 whole entry G188A) above, with A188G, A190S counted along it
Description: as §1

[6] = target: Full length LIGHT T191A on HEK293FF cells (Homo sapiens (Human), UniProt O43557 1-240); assay: flow cytometry, HEK293FF, mAb at EC50
Chain of Full length LIGHT T191A on HEK293FF cells (O43557 whole entry T191A): as the sequence (O43557 whole entry G188A) above, with A188G, T191A counted along it
Description: as §1

[7] = target: Full length LIGHT S192A on HEK293FF cells (Homo sapiens (Human), UniProt O43557 1-240); assay: flow cytometry, HEK293FF, mAb at EC50
Chain of Full length LIGHT S192A on HEK293FF cells (O43557 whole entry S192A): as the sequence (O43557 whole entry G188A) above, with A188G, S192A counted along it
Description: as §1

[8] = target: Full length LIGHT S193A on HEK293FF cells (Homo sapiens (Human), UniProt O43557 1-240); assay: flow cytometry, HEK293FF, mAb at EC50
Description: as §1

[9] = target: Full length LIGHT S194A on HEK293FF cells (Homo sapiens (Human), UniProt O43557 1-240); assay: flow cytometry, HEK293FF, mAb at EC50
Chain of Full length LIGHT S194A on HEK293FF cells (O43557 whole entry S194A): as the sequence (O43557 whole entry G188A) above, with A188G, S194A counted along it
Description: as §1

[10] = target: Full length LIGHT R195A on HEK293FF cells (Homo sapiens (Human), UniProt O43557 1-240); assay: flow cytometry, HEK293FF, mAb at EC50
Chain of Full length LIGHT R195A on HEK293FF cells (O43557 whole entry R195A): as the sequence (O43557 whole entry G188A) above, with A188G, R195A counted along it
Description: as §1

[11] = target: Full length LIGHT V196A on HEK293FF cells (Homo sapiens (Human), UniProt O43557 1-240); assay: flow cytometry, HEK293FF, mAb at EC50
Description: as §1

[12] = target: Full length LIGHT W197A on HEK293FF cells (Homo sapiens (Human), UniProt O43557 1-240); assay: flow cytometry, HEK293FF, mAb at EC50
Chain of Full length LIGHT W197A on HEK293FF cells (O43557 whole entry W197A): as the sequence (O43557 whole entry G188A) above, with A188G, W197A counted along it
Description: as §1

[13] = target: Full length LIGHT W198A on HEK293FF cells (Homo sapiens (Human), UniProt O43557 1-240); assay: flow cytometry, HEK293FF, mAb at EC50
Chain of Full length LIGHT W198A on HEK293FF cells (O43557 whole entry W198A): as the sequence (O43557 whole entry G188A) above, with A188G, W198A counted along it
Description: as §1

[14] = target: T2, Human LIGHT stably expressed on EL4 cells (EL4-LIGHT) (human, UniProt O43557 1-240); assay: flow cytometry, EL4-LIGHT cells, against F19 and F23
T2 construct: whole, on cells; also called membrane LIGHT

[15] = target: T3, Human LIGHT-32L, on II23 cells (human, UniProt O43557 1-240); assay: flow cytometry on II23-LIGHT 32L cells, 4 ug mAb in 100 uL, goat anti-human Fc gamma-PE; signal as % of the commercial anti-LIGHT-PE
T3 construct: also called II23-LIGHT 32L
T3 chain: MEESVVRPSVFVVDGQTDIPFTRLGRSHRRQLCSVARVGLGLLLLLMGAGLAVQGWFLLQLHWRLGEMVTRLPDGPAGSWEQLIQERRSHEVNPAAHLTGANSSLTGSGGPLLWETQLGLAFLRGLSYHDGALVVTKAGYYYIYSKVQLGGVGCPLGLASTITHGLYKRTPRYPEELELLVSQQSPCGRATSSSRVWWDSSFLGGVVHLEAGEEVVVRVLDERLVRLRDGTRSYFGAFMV
Description: The cells were suspended at 1×10⁷ cells/ml and 100 uL aliquots were placed into wells of a 96-well plate, the cells spun down and washed in FACS buffer at 1800 rpm for 2 min. The cells were blocked with 1:100 dilution of anti-CD16/CD32 (eBioscience, San Diego, USA) in FACS buffer for 20 min at room temperature and then washed 1× in FACS buffer at 1800 rpm for 2 min. The cells were then resuspended in 100 uL FACS buffer+4 ug anti-membrane LIGHT mAbs or anti-LIGHT-PE (eBioscience, lot: E01621-1632) for 30 min in the dark at room temperature, followed by washing 1× in FACS buffer at 1800 rpm for 2 min and then resuspended in 100 uL FACS buffer plus 1:100 goat anti-human Fcγ-PE secondary antibody or no secondary antibody at 4° C. in the dark for 30 min. The cells were again washed 1× in FACS buffer at 1800 rpm for 2 min and fixed in 200 uL 2% paraformaldehyde overnight at 4° C. and read on a flow cytometer.

- IC50, inhibition of IL-8 secretion, HT-29 + EL4-NC-LIGHT cells [1]: 0.2 nM
- IC50, inhibition of IL-8 secretion, HT-29 + EL4-NC-LIGHT cells [2]: 0.05 nM
- % of WT binding [3]: 6%
- % of WT binding [4]: 0%
- % of WT binding [5]: 68%
- % of WT binding [6]: 2%
- % of WT binding [7]: 88%
- % of WT binding [8]: 0%
- % of WT binding [9]: 0%
- % of WT binding [10]: 1%
- % of WT binding [11]: 80%
- % of WT binding [12]: 0%
- % of WT binding [13]: 81%
- binding ratio, mAb to LIGHT trimer [14]: 1 mAb per LIGHT trimer
- binding result [15]: binds
B1: 3B04 chimeric IgG4 mAb (antibody, V domains shown)
VH: QVQLQQPGAELVRPGASVTLSCKASGYTFTDYEMHWVKQTPVHGLEWIGEIDPETGDTAYSQKFKGKATLTADKSSSTAYMEFRSLTSEDSAVYYCSRETDYFFDYWGQGTTLTVSS
VL: DIQMTQTPASLSASVGETVTITCGASENIYGALNWYQRKQGKSPQLLIYGATNLADGMSSRFSGSGSGRQYSLKISSLHPDDFATYYCQNVLTTPWTFGGGTKLEIK
notes: also called Parental 3B04

- IC50, inhibition of IL-8 secretion, HT-29 + EL4-NC-LIGHT cells [1]: 0.1 nM
- IC50, inhibition of IL-8 secretion, HT-29 + EL4-NC-LIGHT cells [2]: 0.32 nM
- % of WT binding [3]: 20%
- % of WT binding [4]: 1%
- % of WT binding [5]: 82%
- % of WT binding [6]: 8%
- % of WT binding [7]: 84%
- % of WT binding [8]: 0%
- % of WT binding [9]: 2%
- % of WT binding [10]: 25%
- % of WT binding [11]: 70%
- % of WT binding [12]: 1%
- % of WT binding [13]: 83%
- binding ratio, mAb to LIGHT trimer [14]: 1 mAb per LIGHT trimer
- binding result [15]: binds
B2: 3D12 chimeric IgG4 mAb (antibody, V domains shown)
VH: B1 VH with G26D, Y32S, M34I, D57G, S61N, F83L
VL: B1 VL with T7S, F83V, T93S
notes: Chimeric human IgG4 (S-to-P, L-to-E) with human CL, as m1; also called Parental 3D12; 03D12
